# Assay results from patent US20210338838A1 (UNIVERSITY OF UTAH RESEARCH FOUNDATION, published 2021).
# Numbering of substitutions follows the chain as printed.
# T1: monomeric C-reactive protein (CRP) (UniProt P02741 19-224)
# T1 sequence (looked up): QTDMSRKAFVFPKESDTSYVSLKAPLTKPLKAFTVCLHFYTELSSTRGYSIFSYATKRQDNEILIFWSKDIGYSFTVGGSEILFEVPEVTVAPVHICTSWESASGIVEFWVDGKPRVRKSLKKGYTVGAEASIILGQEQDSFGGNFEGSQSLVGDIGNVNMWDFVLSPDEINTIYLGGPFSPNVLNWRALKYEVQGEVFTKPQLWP
# B1: CFHT-Neu/Del (truncated CFH of the neutral and deletion haplotypes, V62-Y402) (other)
# chain: EDCNELPPRRNTEILTGSWSDQTYPEGTQAIYKCRPGYRSLGNVIMVCRKGEWVALNPLRKCQKRPCGHPGDTPFGTFTLTGGNVFEYGVKAVYTCNEGYQLLGEINYRECDTDGWTNDIPICEVVKCLPVTAPENGKIVSSAMEPDREYHFGQAVRFVCNSGYKIEGDEEMHCSDDGFWSKEKPKCVEISCKSPDVINGSPISQKIIYKENERFQYKCNMGYEYSERGDAVCTESGWRPLPSCEEKSCDNPYIPNGDYSPLRIKHRTGDEITYQCRNGFYPATRGNTAKCTSTGWIPAPRCTLKPCDYPDIKHGGLYHENMRRPYFPVAVGKYYSYYCDEHFETPSGSYWDHIHCTQDGWSPAVPCLRKCYFPYLENGYNQNYGRKFVQGKSIDVACHPGYALPKAQTTVTCMENGWSPTPRCIRVSFTL
# B2: CFHT-V62-H402 (risk variant of truncated CFH) (other)
# chain: B1 chain with Y384H
# notes: also called CFHT-Risk
# B3: CFH-Del (CFH of the CFHR3/1 deletion haplotype, V62-Y402-E936) (other)
# chain: EDCNELPPRRNTEILTGSWSDQTYPEGTQAIYKCRPGYRSLGNVIMVCRKGEWVALNPLRKCQKRPCGHPGDTPFGTFTLTGGNVFEYGVKAVYTCNEGYQLLGEINYRECDTDGWTNDIPICEVVKCLPVTAPENGKIVSSAMEPDREYHFGQAVRFVCNSGYKIEGDEEMHCSDDGFWSKEKPKCVEISCKSPDVINGSPISQKIIYKENERFQYKCNMGYEYSERGDAVCTESGWRPLPSCEEKSCDNPYIPNGDYSPLRIKHRTGDEITYQCRNGFYPATRGNTAKCTSTGWIPAPRCTLKPCDYPDIKHGGLYHENMRRPYFPVAVGKYYSYYCDEHFETPSGSYWDHIHCTQDGWSPAVPCLRKCYFPYLENGYNQNYGRKFVQGKSIDVACHPGYALPKAQTTVTCMENGWSPTPRCIRVKTCSKSSIDIENGFISESQYTYALKEKAKYQCKLGYVTADGETSGSITCGKDGWSAQPTCIKSCDIPVFMNARTKNDFTWFKLNDTLDYECHDGYESNTGSTTGSIVCGYNGWSDLPICYERECELPKIDVHLVPDRKKDQYKVGEVLKFSCKPGFTIVGPNSVQCYHFGLSPDLPICKEQVQSCGPPPELLNGNVKEKTKEEYGHSEVVEYYCNPRFLMKGPNKIQCVDGEWTTLPVCIVEESTCGDIPELEHGWAQLSSPPYYYGDSVEFNCSESFTMIGHRSITCIHGVWTQLPQCVAIDKLKKCKSSNLIILEEHLKNKKEFDHNSNIRYRCRGKEGWIHTVCINGRWDPEVNCSMAQIQLCPPPPQIPNSHNMTTTLNYRDGEKVSVLCQENYLIQEGEEITCKDGRWQSIPLCVEKIPCSQPPQIEHGTINSSRSSQESYAHGTKLSYTCEGGFRISEENETTCYMGKWSSPPQCEGLPCKSPPEISHGVVAHMSDSYQYGEEVTYKCFEGFGIDGPAIAKCLGEKWSHPPSCIKTDCLSLPSFENAIPMGEKKDVYKAGEQVTYTCATYYKMDGASNVTCINSRWTGRPTCRDTSCVNPPTVQNAYIVSRQMSKYPSGERVRYQCRSPYEMFGDEEVMCLNGNWTEPPQCKDSTGKCGPPPPIDNGDITSFPLSVYAPASSVEYQCQNLYQLEGNKRITCRNGQWSEPPKCLHPCVISREIMENYNIALRWTAKQKLYSRTGESVEFVCKRGYRLSSRSHTLRTTCWDGKLEYPTCAKR
# notes: also called 3,1 Deletion (Del)
# B4: CFH-Neu (neutral variant of full-length CFH, V62-Y402-D936) (other)
# chain: B3 chain with E918D
# notes: also called Neutral (Neu)
# B5: CFH-V62-H402-E936 (risk variant of full-length CFH) (other)
# chain: B3 chain with Y384H
# notes: also called CFH-Risk; CFH-risk protein
# B6: eCFHT-SK (engineered truncated CFH, I62-Y402, ending in SKSFTL) (other)
# chain: EDCNELPPRRNTEILTGSWSDQTYPEGTQAIYKCRPGYRSLGNIIMVCRKGEWVALNPLRKCQKRPCGHPGDTPFGTFTLTGGNVFEYGVKAVYTCNEGYQLLGEINYRECDTDGWTNDIPICEVVKCLPVTAPENGKIVSSAMEPDREYHFGQAVRFVCNSGYKIEGDEEMHCSDDGFWSKEKPKCVEISCKSPDVINGSPISQKIIYKENERFQYKCNMGYEYSERGDAVCTESGWRPLPSCEEKSCDNPYIPNGDYSPLRIKHRTGDEITYQCRNGFYPATRGNTAKCTSTGWIPAPRCTLKPCDYPDIKHGGLYHENMRRPYFPVAVGKYYSYYCDEHFETPSGSYWDHIHCTQDGWSPAVPCLRKCYFPYLENGYNQNYGRKFVQGKSIDVACHPGYALPKAQTTVTCMENGWSPTPRCIRVSKSFTL
# notes: Non-natural variant of human CFHT with SK inserted before the C-terminal SFTL; In the Western blot it was expressed from eCFH/T v4.2 in RPE1 cells; also called protective eCFHT-SK; truncated product of eCFH/T v4.2
# B7: eCFHT-SE (engineered truncated CFH, I62-Y402, ending in SESFTL) (other)
# chain: B6 chain with K429E
# notes: The chain is built from the first 445 residues shared by CFH and CFHT, less the 18-residue signal peptide, plus the printed C-terminal SESFTL; His-tagged and purified from HEK293 cells; also called protective eCFHT-SE; truncated product of eCFH/T v4.3
# Target: T1, monomeric C-reactive protein (CRP)
# Assay: relative CRP-binding assay, percent of CFH-Risk, detection antibody AbCam OX-24 (#Ab112197)
row,% FH-Risk [%],Binder
1,6870,B1
2,131,B2
3,972,B3
4,956,B4
5,100,B5

# Target: T1, monomeric C-reactive protein (CRP)
# Assay: relative CRP-binding assay, detection antibody AbCam OX-24 (#Ab112197)
row,Binding Potential,Binder
1,101,B1
2,2,B2
3,14,B3
4,14,B4
5,1,B5

# Target: T2, MDA-modified LDL particles
# T2 construct: Not a plain protein; also called MDA-LDL; MDA adducts
# Assay: relative MDA-binding assay, percent of CFH-Risk, detection antibody AbCam OX-24 (#Ab112197)
row,% FH-Risk [%],Binder
1,94,B1
2,35,B2
3,145,B3
4,130,B4
5,100,B5

# Target: T2, MDA-modified LDL particles
# Assay: relative MDA-binding assay, detection antibody AbCam OX-24 (#Ab112197)
row,Binding Potential,Binder
1,28,B1
2,10,B2
3,43,B3
4,39,B4
5,30,B5

# Target: T2, MDA-modified LDL particles
# Assay: plate-based binding assay, His-tagged recombinant protein from HEK293 cells
row,Kd [nM],Binder
1,290,B6
2,305,B7

# Target: T2, MDA-modified LDL particles
# Assay: rank of binding affinity among six proteins, plate-based binding assays
row,Binding Affinity Rank (1 best to 6 worst) [rank],Binder
1,5,B2
2,6,B5
3,3,B6
4,4,B7

# Target: T1, monomeric C-reactive protein (CRP)
# Assay: as above
row,Binding Affinity Rank (1 best to 6 worst) [rank],Binder
1,5,B2
2,6,B5
3,1,B6
4,3,B7
